Laboratory results published in patent US20130302346A1 (LEXICON PHARMACEUTICALS, published 2013).
Positions count from the first letter of the chain named.

T1: H-M-H
T1 construct: Drawn on the sheet as human up to the M177 line, a mouse middle segment, then a human C-terminal part; Conditioned medium from transfected HEK293F; also called Human-mouse-human chimeric NOTUM
T1 single chain: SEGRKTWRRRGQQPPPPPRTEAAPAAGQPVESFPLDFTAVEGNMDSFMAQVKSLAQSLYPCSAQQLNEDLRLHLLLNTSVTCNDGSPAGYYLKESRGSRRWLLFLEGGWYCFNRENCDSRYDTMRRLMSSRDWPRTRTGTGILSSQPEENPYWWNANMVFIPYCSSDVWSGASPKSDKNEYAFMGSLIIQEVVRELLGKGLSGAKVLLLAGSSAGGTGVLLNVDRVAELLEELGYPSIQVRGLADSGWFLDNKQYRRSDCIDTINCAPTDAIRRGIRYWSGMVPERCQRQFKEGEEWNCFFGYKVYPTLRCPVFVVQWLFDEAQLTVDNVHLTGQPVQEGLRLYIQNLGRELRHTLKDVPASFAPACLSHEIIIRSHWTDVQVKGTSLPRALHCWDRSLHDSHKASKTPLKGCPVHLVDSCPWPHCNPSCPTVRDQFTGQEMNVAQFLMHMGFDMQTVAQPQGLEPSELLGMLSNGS

T2: M-H-M
T2 construct: Drawn on the sheet as mouse up to the M177 line, a human middle segment, then a mouse C-terminal part; Conditioned medium from transfected HEK293F; also called Mouse-human-mouse chimeric NOTUM
T2 single chain: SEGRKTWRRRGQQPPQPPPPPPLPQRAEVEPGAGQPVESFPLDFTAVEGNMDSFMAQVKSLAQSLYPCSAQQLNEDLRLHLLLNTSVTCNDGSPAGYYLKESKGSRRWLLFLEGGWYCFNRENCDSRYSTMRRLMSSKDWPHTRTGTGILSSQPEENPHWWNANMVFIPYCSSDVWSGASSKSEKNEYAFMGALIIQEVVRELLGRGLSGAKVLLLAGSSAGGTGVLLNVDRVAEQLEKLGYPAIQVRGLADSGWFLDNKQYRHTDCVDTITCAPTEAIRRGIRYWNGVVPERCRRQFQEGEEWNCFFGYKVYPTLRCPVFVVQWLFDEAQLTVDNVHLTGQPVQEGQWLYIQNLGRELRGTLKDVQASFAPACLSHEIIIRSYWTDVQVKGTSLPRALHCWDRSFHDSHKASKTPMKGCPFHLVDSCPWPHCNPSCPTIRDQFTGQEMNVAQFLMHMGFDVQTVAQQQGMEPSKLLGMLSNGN

T3: H(Q47)
T3 construct: Drawn on the sheet as a signal peptide (SP) followed by human NOTUM starting at Q47; CD33 signal peptide'; also called Human NOTUM (delta 1-46) with CD33 signal peptide
T3 single chain: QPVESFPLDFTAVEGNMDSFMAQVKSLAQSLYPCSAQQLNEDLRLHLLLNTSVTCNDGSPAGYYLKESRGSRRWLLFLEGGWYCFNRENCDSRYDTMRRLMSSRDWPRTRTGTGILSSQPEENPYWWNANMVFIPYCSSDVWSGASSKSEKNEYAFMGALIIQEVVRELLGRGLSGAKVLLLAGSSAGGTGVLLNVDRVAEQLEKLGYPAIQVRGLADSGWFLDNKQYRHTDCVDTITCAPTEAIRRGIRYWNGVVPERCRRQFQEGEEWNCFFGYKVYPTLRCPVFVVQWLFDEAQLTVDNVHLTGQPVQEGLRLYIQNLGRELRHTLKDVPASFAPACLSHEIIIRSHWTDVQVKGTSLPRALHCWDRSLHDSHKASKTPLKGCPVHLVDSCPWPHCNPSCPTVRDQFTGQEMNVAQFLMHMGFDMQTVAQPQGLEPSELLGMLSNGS

T4: H(S232A)
T4 construct: The catalytic triad serine is drawn as A on the sheet; also called Human NOTUM S232A
T4 single chain: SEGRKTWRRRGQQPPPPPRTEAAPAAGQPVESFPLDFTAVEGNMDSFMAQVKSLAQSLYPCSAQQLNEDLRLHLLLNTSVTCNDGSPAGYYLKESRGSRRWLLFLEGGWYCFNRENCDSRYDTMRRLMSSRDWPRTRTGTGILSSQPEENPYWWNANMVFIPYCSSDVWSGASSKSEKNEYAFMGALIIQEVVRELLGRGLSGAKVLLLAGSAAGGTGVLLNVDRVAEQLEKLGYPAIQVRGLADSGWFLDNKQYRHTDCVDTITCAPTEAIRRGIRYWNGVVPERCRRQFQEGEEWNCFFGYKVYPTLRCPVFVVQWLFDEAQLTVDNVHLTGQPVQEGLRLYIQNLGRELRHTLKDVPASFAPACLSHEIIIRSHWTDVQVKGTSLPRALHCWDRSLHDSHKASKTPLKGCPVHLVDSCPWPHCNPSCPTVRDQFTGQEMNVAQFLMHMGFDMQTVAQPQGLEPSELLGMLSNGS

B1: MAb 1.802 (antibody, V domains shown)
VH: EVQLVESGGGLVKPGGSLKLSCAASGFTFSDYGMHWFRQAPEKGLEWVAYISSGSRTVYYADTVKGRFTISRDNAKNTLSLQMTSLRSEDTAMYYCARKHYNGGYFDVWGTGTTVTVSS
VL: DIVLTQSPASLAVSLGQRATISCRASKIVSTSGYSYMHWYQQKPGQPPKLLIYLASNLESGVPARFSGSGSGTDFTLNIHPVEEEDAATYYCQHSRELPPTFGSGTKLEIKR
notes: Mouse monoclonal antibody from Campaign 1 (raised against human NOTUM), IgG1
B2: MAb 1.815 (antibody, IgG1, V domains shown)
VH: DVQLLESGGGLVQPGGSRKLSCAASGFTFSDFGMHWVRQAPEKGLEWVAYSSSGGTTVYYADTVKGRLTLSRDNSKNTLFLEMTSLRSEDTAMYYCARASYDGGYFDCWGQGTSLTVSS
VL: B1 VL with I28S, M37I, N57D, T73A, D74A, Q93H, P100F
notes: Mouse monoclonal antibody from Campaign 1, IgG1
B3: MAb 1.846 (antibody, IgG2b, V domains shown)
VH: B1 VH with G10D, F37L, R56T, V58L, Y59S, D62N, V64M, N77K, M93I, H100N
VL: B1 VL with A12V, I28S, T31E, E85G, A88T, E97V
notes: Mouse monoclonal antibody from Campaign 1, IgG2b

Target: T1, H-M-H
Test: ELISA on conditioned medium of HEK293F transfected with the NOTUM construct (Example 6.7)
From the text: (§1) The sequences of those proteins are shown in Section 7 (Table of Sequences). The conditioned media were used in ELISA format to determine antibody specificity. […] Within this region, mouse and human NOTUM differ at five positions (R115K, D141S. R150K, R154H, and Y171H, based on the human sequence numbering). Human NOTUM point mutants were generated by transient transfection of constructs expressing human NOTUM with the mouse amino acid at each of these five positions and the point mutants were all shown to be functional in the OPTS assay.

Binder	binding result
B1	binds
B2	binds
B3	binds

Target: T2, M-H-M
Test: as above
From the text: as §1

Binder	binding result
B1	no binding
B2	no binding
B3	no binding

Target: T3, H(Q47)
Test: as above
From the text: as §1

Binder	binding result
B1	binds
B2	binds
B3	binds

Target: T4, H(S232A)
Test: as above
From the text: as §1

Binder	binding result
B1	binds
B2	binds
B3	binds
